In PMC5816542, “In vitro and in vivo characterization of three Cellvibrio japonicus glycoside hydrolase family 5 members reveals potent xyloglucan backbone-cleaving functions” (Biotechnology for Biofuels, 2018):

What was measured:
CjGH5D = biological target: T1, CjGH5D (Cellvibrio japonicus, UniProt B3PD52); assay: time-dependent inactivation, residual XXXG-CNP hydrolysis at […] nm; type: biochemical; conditions: covalent; irreversible active-site affinity label; 20 mM phosphate pH 7.5, 40 °C, 0.1 mg/mL BSA; XXXG-CNP substrate
T1 construct: gene cel5D; GH5_4 catalytic module, lipoprotein signal peptide and serine-rich linker removed; N-terminal His6 (pET28a), E. coli; borders 96-468 are those of the crystal model

purified protein [1] = substrate: O=[N+]([O-])c1ccc(O[C@@H]2O[C@H](CO)[C@@H](O[C@@H]3O[C@H](CO[C@H]4OC[C@@H](O)[C@H](O)[C@H]4O[C@@H]4O[C@H](CO)[C@H](O)[C@H](O)[C@H]4O)[C@@H](O[C@@H]4O[C@H](CO[C@H]5OC[C@@H](O)[C@H](O)[C@H]5O[C@@H]5O[C@H](CO)[C@H](O)[C@H](O)[C@H]5O)[C@@H](O[C@@H]5O[C@H](CO[C@H]6OC[C@@H](O)[C@H](O)[C@H]6O)[C@@H](O)[C@H](O)[C@H]5O)[C@H](O)[C@H]4O)[C@H](O)[C@H]3O)[C@H](O)[C@H]2O)c(Cl)c1; assay: purified protein; type: biochemical, Cellvibrio japonicus
purified protein [2] = substrate: O=[N+]([O-])c1ccc(O[C@@H]2O[C@H](CO)[C@@H](O[C@@H]3O[C@H](CO[C@H]4OC[C@@H](O)[C@H](O)[C@H]4O)[C@@H](O[C@@H]4O[C@H](CO[C@H]5OC[C@@H](O)[C@H](O)[C@H]5O)[C@@H](O[C@@H]5O[C@H](CO[C@H]6OC[C@@H](O)[C@H](O)[C@H]6O)[C@@H](O)[C@H](O)[C@H]5O)[C@H](O)[C@H]4O)[C@H](O)[C@H]3O)[C@H](O)[C@H]2O)c(Cl)c1; assay: purified protein; type: biochemical, Cellvibrio japonicus
purified protein [3] = substrate: O=[N+]([O-])c1ccc(O[C@@H]2O[C@H](CO)[C@@H](O[C@@H]3O[C@H](CO)[C@@H](O[C@@H]4O[C@H](CO)[C@@H](O)[C@H](O)[C@H]4O)[C@H](O)[C@H]3O)[C@H](O)[C@H]2O)c(Cl)c1; assay: purified protein; type: biochemical, Cellvibrio japonicus; conditions: 50 mM phosphate pH 7.5, 55 °C
purified protein [4] = substrate: O=[N+]([O-])c1ccc(O[C@@H]2O[C@H](CO)[C@@H](O[C@@H]3O[C@H](CO)[C@@H](O[C@@H]4O[C@H](CO)[C@@H](O[C@@H]5O[C@H](CO)[C@@H](O)[C@H](O)[C@H]5O)[C@H](O)[C@H]4O)[C@H](O)[C@H]3O)[C@H](O)[C@H]2O)c(Cl)c1; assay: purified protein; type: biochemical, Cellvibrio japonicus; conditions: 50 mM phosphate pH 7.5, 55 °C

Question: How did the KI (inactivation) (CjGH5D) turn out when `O=C(CBr)N[C@@H]1O[C@H](CO)[C@@H](O[C@@H]2O[C@H](CO[C@H]3OC[C@@H](O)[C@H](O)[C@H]3O)[C@@H](O[C@@H]3O[C@H](CO[C@H]4OC[C@@H](O)[C@H](O)[C@H]4O)[C@@H](O[C@@H]4O[C@H](CO[C@H]5OC[C@@H](O)[C@H](O)[C@H]5O)[C@@H](O)[C@H](O)[C@H]4O)[C@H](O)[C@H]3O)[C@H](O)[C@H]2O)[C@H](O)[C@H]1O` [XXXG-NHCOCH2Br] was run?
Answer: The KI (inactivation) was 1.78 ± 0.17 mM.

B1: CjGH5D (Cellvibrio japonicus Ueda107) (protein)
chain: GLYPSYNTSPAAPDSTGMQSTAVQLAGKIRLGWNIGNTMEAIGGETAWGNPMVSNELLKLVKDSGFDAVRIPVAWDQYANQESAEISAAWLNRVKQVVQMAIDNELYVLINIHWDGGWLENNITPAKKDENNAKQKAFWEQIATHLRDFDEHLLFAGTNEPNAENAEQMDVLNSYLQTFVDAVRSTGGKNAYRVLVLQGPVTDIEKTNELWTHMPADTATDRLMAEVHFYTPYNFALMRQDESWGKQFYYWGEGFLSTTDTERNPTWGEEATIDQLFDLMKTKFVDQGIPVVLGEFSAMRRTNLTGDALTLHLAGRAYYHKYVTQQALARGLLPFYWDNGGNDNFSSGIFNRQQNTVFDQQVLDALLEGAGAQ
notes: GH5_4 catalytic module, lipoprotein signal peptide and serine-rich linker removed; N-terminal His6 (pET28a), E. coli; borders 96-468 are those of the crystal model
Question: What does the source list for B1?
Answer: Km (purified protein [1]; 50 mM phosphate pH 7.5, 50 °C): 0.18 ± 0.02 mM; kcat (purified protein [1]; 50 mM phosphate pH 7.5, 50 °C): 2.7 ± 0.0667 s⁻¹; kcat/Km (purified protein [1]; 50 mM phosphate pH 7.5, 50 °C): 15000 ± 1720 M⁻¹ s⁻¹; Km (purified protein [2]; 50 mM phosphate pH 7.5, 50 °C): 0.81 ± 0.10 mM; kcat (purified protein [2]; 50 mM phosphate pH 7.5, 50 °C): 4.68 ± 0.2 s⁻¹; kcat/Km (purified protein [2]; 50 mM phosphate pH 7.5, 50 °C): 5780 ± 750 M⁻¹ s⁻¹

B2: CjGH5F (Cellvibrio japonicus Ueda107) (protein)
chain: FSVTVGGSSSGTMRNLTSVQLARLMGAGWNLGNSLEAIGSETAWGNPATTQALINAVKAAGFKTIRIPVSWSQYADANYNISSSWMARVKQVVDYAKNAGFYVIINIHWDGGWMQPTYANQAAVNSRLTKLWTQIANNFKNYDDYLLFAGTNEVMVDGDYGTPTYEYYTVQNSFNQTFVNTVRATGGNNAVRHLVVQGFNTNIDHTISFVSIPSDSASNRLMMEVHYYDPYNFTLNASSNIWQWGANATNSSATETWANETYVNTQFQRMKTRFIDNGVAVILGEFGAISRTNIPGAESYRTYWNQYITRAAYTRGLVPIYWDNGYTANNGMGLFDRYNGAQVYPNLISTIINAAQ
notes: C-terminal GH5_4 catalytic module, signal peptide and FN3 domain removed; N-terminal His6 (pET28a), E. coli
Question: What does the source list for B2?
Answer: Km (purified protein [1]; 50 mM phosphate pH 7.0, 50 °C): 0.030 ± 0.002 mM; kcat (purified protein [1]; 50 mM phosphate pH 7.0, 50 °C): 6.55 ± 0.133 s⁻¹; kcat/Km (purified protein [1]; 50 mM phosphate pH 7.0, 50 °C): 218000 ± 15000 M⁻¹ s⁻¹; Km (purified protein [2]; 50 mM phosphate pH 7.0, 50 °C): 0.07 ± 0.01 mM; kcat (purified protein [2]; 50 mM phosphate pH 7.0, 50 °C): 2.82 ± 0.0667 s⁻¹; kcat/Km (purified protein [2]; 50 mM phosphate pH 7.0, 50 °C): 40200 ± 5830 M⁻¹ s⁻¹

B3: CjGH5E (Cellvibrio japonicus Ueda107) (protein)
chain: SSSGSSLTSVELTRLMGVGWNVGNTLDAIGGETNWGNPLITQQLISSVKAAGFKTLRVPVAWSKFTNAATFTIDPAWLNRVEQVVNYALNEDMYVMINIHWDGGWMQPTYAQQAYVNNRLSIMWTQIANHFRNYGDKLLFAGTNEVMVEGDYGTPTVEYYTVQNSFNQTFVDTVRATGGNNANRFLVVQGFNTNIDHTVNFARIPTDSASNRLLMEVHYYDPYNFTLNTSSNITQWGAIATNPAVTETWANEAYADAQFEKMRTNFINRGVGVILGEYGVVSRLNVSGHETFRVYYNQYITKSAYQRGLVPVYWDNGYSGDGGFALFDRNSGNQLYPDIIRAIVNATF
notes: GH5_4 catalytic module, signal peptide and CBM2-CBM10 removed; N-terminal His6 (pMCSG53), E. coli
Question: With B3 as the molecule, how does the Km (purified protein [3]) read?
Answer: Its Km is 11.8 ± 0.6 mM.

Question: And the kcat (purified protein [3])?
Answer: The kcat was 3.18 ± 0.117 s⁻¹.

Question: What about the kcat/Km (purified protein [3]) of the same molecule?
Answer: Its kcat/Km is 270 ± 16.7 M⁻¹ s⁻¹.

Question: And the Km (purified protein [1]; 50 mM phosphate pH 7.5, 55 °C)?
Answer: Its Km is 0.010 ± 0.001 mM.

Question: And the kcat (purified protein [1]; 50 mM phosphate pH 7.5, 55 °C)?
Answer: The kcat was 5.53 ± 0.15 s⁻¹.

Question: And the kcat/Km (purified protein [1]; 50 mM phosphate pH 7.5, 55 °C)?
Answer: The kcat/Km was 553000 ± 56700 M⁻¹ s⁻¹.

Question: What about the Km (purified protein [2]; 50 mM phosphate pH 7.5, 55 °C) of the same molecule?
Answer: The Km was 0.010 ± 0.001 mM.

Question: What about the kcat (purified protein [2]; 50 mM phosphate pH 7.5, 55 °C) of the same molecule?
Answer: The kcat was 4.23 ± 0.0667 s⁻¹.

Question: What about the kcat/Km (purified protein [2]; 50 mM phosphate pH 7.5, 55 °C) of the same molecule?
Answer: Its kcat/Km is 423000 ± 43300 M⁻¹ s⁻¹.

Question: What about the Km (purified protein [4]) of the same molecule?
Answer: The Km was 5.02 ± 0.35 mM.

Question: What about the kcat (purified protein [4]) of the same molecule?
Answer: Its kcat is 3 ± 0.117 s⁻¹.

Question: What about the kcat/Km (purified protein [4]) of the same molecule?
Answer: The kcat/Km was 598 ± 46.7 M⁻¹ s⁻¹.
